Measured values published in the Immune Epitope Database (IEDB).

How the values were obtained:
HLA-B*15:09 = experiment: IEDB peptide-MHC binding, purified MHC/competitive/fluorescence; filed as Kd, often an IC50 or EC50 that approximates it; ≥ and ≤ were set here for values at or beyond the usual limits of such assays
HLA-A*11:01 = experiment: IEDB peptide-MHC binding, purified MHC/direct/fluorescence; filed as Kd, often an IC50 or EC50 that approximates it; ≥ and ≤ were set here for values at or beyond the usual limits of such assays
HLA-B*15:17 = experiment: as above
HLA-A*02:01 = experiment: as above
HLA-A*26:01 = experiment: as above; settings: source organism: Ravn virus - Ravn, Kenya, 1987
HLA-A*31:01 = experiment: as above
HLA-B*27:05 = experiment: as above
HLA-B*48:01 [1] = experiment: as above
HLA-A*68:02 = experiment: as above; settings: source organism: Marburg virus - Musoke, Kenya, 1980
HLA-B*57:01 = experiment: as above
HLA-B*58:01 = experiment: as above
HLA-B*44:02 = experiment: as above; settings: source organism: Marburg virus - Musoke, Kenya, 1980
HLA-B*08:01 = experiment: as above; settings: source organism: Ravn virus - Ravn, Kenya, 1987
HLA-B*07:02 = experiment: as above
HLA-B*18:01 = experiment: as above
HLA-B*40:01 = experiment: as above
HLA-A*69:01 = experiment: as above
HLA-A*01:01 = experiment: as above
HLA-B*73:01 = experiment: as above; settings: source organism: Homo sapiens
HLA-C*07:02 = experiment: as above; settings: source organism: Homo sapiens
HLA-B*39:01 = experiment: IEDB peptide-MHC binding, purified MHC/competitive/fluorescence; filed as Kd, often an IC50 or EC50 that approximates it; ≥ and ≤ were set here for values at or beyond the usual limits of such assays; settings: source organism: Mycobacterium tuberculosis variant bovis BCG str. Pasteur 1173P2
HLA-B*38:01 = experiment: IEDB peptide-MHC binding, purified MHC/direct/fluorescence; filed as Kd, often an IC50 or EC50 that approximates it; ≥ and ≤ were set here for values at or beyond the usual limits of such assays; settings: source organism: Mycobacterium tuberculosis str. Haarlem
HLA-B*46:01 = experiment: as above; settings: source organism: Mycobacterium tuberculosis
HLA-B*15:01 = experiment: as above; settings: source organism: Mycobacterium tuberculosis
HLA-A*03:01 = experiment: as above; settings: source organism: Mycobacterium tuberculosis
HLA-B*51:01 = experiment: as above; settings: source organism: Mycobacterium tuberculosis
HLA-B*48:01 [2] = experiment: IEDB peptide-MHC binding, purified MHC/competitive/fluorescence; filed as Kd, often an IC50 or EC50 that approximates it; ≥ and ≤ were set here for values at or beyond the usual limits of such assays; settings: source organism: Vibrio vulnificus CMCP6
HLA-C*15:02 = experiment: IEDB peptide-MHC binding, purified MHC/direct/fluorescence; filed as Kd, often an IC50 or EC50 that approximates it; ≥ and ≤ were set here for values at or beyond the usual limits of such assays; settings: source organism: Vibrio vulnificus CMCP6
HLA-B*40:02 = experiment: IEDB peptide-MHC binding, cellular MHC/competitive/fluorescence; ≥ and ≤ were set here for values at or beyond the usual limits of such assays; settings: source organism: Homo sapiens
[3] = source organism: Marburg virus - Musoke, Kenya, 1980
[4] = source organism: Mycobacterium tuberculosis

AEILSGRVI
Kd (HLA-B*15:09; source organism: Orthomarburgvirus marburgense): ≥ 20 µM | Kd (HLA-A*11:01; [3]): ≥ 20 µM | Kd (HLA-B*15:17; [3]): ≥ 20 µM | Kd (HLA-A*02:01; [3]): ≥ 20 µM | Kd (HLA-A*26:01): ≥ 20 µM | Kd (HLA-A*31:01; [3]): ≥ 20 µM | Kd (HLA-B*27:05; [3]): ≥ 20 µM | Kd (HLA-B*48:01 [1]; [3]): ≥ 20 µM | Kd (HLA-A*68:02): ≥ 20 µM | Kd (HLA-B*57:01; [3]): ≥ 20 µM | Kd (HLA-B*58:01; [3]): ≥ 20 µM | Kd (HLA-B*44:02): ≥ 21 µM | Kd (HLA-B*08:01): ≥ 20 µM | Kd (HLA-B*07:02; [3]): ≥ 20 µM | Kd (HLA-B*18:01; [3]): 16.7 µM | Kd (HLA-B*40:01; [3]): 0.0055 µM | Kd (HLA-A*69:01; [3]): ≥ 20 µM | Kd (HLA-A*01:01; [3]): ≥ 20 µM

FPLWWVSSI
Kd (HLA-B*73:01): ≥ 20 µM | Kd (HLA-C*07:02): 2.3 µM

GPASLPTAL
Kd (HLA-B*15:09; source organism: Mycobacterium tuberculosis variant bovis BCG str. Pasteur 1173P2): ≥ 20 µM | Kd (HLA-B*39:01): 0.679 µM | Kd (HLA-A*11:01; [4]): ≥ 20 µM | Kd (HLA-B*15:17; [4]): ≥ 20 µM | Kd (HLA-A*02:01; [4]): ≥ 20 µM | Kd (HLA-A*31:01; [4]): ≥ 20 µM | Kd (HLA-B*38:01): ≥ 20 µM | Kd (HLA-B*27:05; [4]): ≥ 20 µM | Kd (HLA-B*46:01): ≥ 20 µM | Kd (HLA-B*48:01 [1]; [4]): 2.82 µM | Kd (HLA-B*15:01): ≥ 20 µM | Kd (HLA-A*03:01): ≥ 20 µM | Kd (HLA-B*57:01; [4]): ≥ 20 µM | Kd (HLA-B*58:01; [4]): ≥ 20 µM | Kd (HLA-B*07:02; [4]): 0.0413 µM | Kd (HLA-B*18:01; [4]): ≥ 20 µM | Kd (HLA-B*51:01): ≥ 20 µM | Kd (HLA-B*40:01; [4]): ≥ 20 µM | Kd (HLA-A*69:01; [4]): 1.24 µM | Kd (HLA-A*01:01; [4]): ≥ 20 µM

RIHDIAVQL
Kd (HLA-B*48:01 [2]): 0.111 µM | Kd (HLA-C*15:02): 0.196 µM

SEFSDVDKL
IC50 (HLA-B*40:02): 1.4 µM
